Measured values: the supplement of paper PMC10567573

B1: POLD4 (parent)
chain: ITDSYPVVKRREGPAGHSKGELAP

Variants of: B1
Assay: protein stability index of a GFP-peptide fusion (GPS, HEK-293T) (PSI 1-6); higher = more stable
Settings: c terminus: a fixed tail appended
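Also: lentivirally expressed fusions sorted by FACS into six bins by GFP to DsRed ratio, PSI derived from sequencing read proportions per bin multiplied by bin number.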

Protein stability index: each site, then its substitutions
E12: A 2.52 | K 3.11
K19: T 3.62 | N 2.59 | M 2.9 | I 2.79 | D 3.96 | V 3.37 | P 4.07 | E 3.28 | Q 3.16 | H 3.56 | L 2.81 | S 3.46 | G 3.89 | R 2.81 | Y 3.06 | F 2.48
T2: S 3.69 | D 4.35 | I 4.58 | M 3.78 | W 3.37 | A 2.43 | L 4.98 | V 3.36 | P 3.71 | Y 4.27 | G 3.61 | F 4.27 | H 4.41
R10: W 3.07 | G 4.21 | N 3.92 | M 3.16 | I 3.38 | K 2.39 | H 4.33 | F 3.57 | D 4.98 | Q 3.8 | A 4.56 | S 3.89 | P 4.68 | C 3.79 | E 4.8 | Y 4.05 | T 3.6 | V 3.94 | L 3.64
A15: M 3.08 | I 2.58 | Q 2.94 | F 2.41 | P 3.03 | R 3.27 | T 2.22 | N 2.97 | Y 3.75 | L 3.32 | K 3.45 | E 3.33 | V 3.23 | H 2.75 | D 2.81 | S 2.8 | C 2.8
V8: F 4.32 | I 3.26 | N 4.21 | T 4.42 | D 5.21 | Q 3.1 | M 3.98 | R 2.88 | S 4.84 | P 4.35 | W 3.16 | C 3.79 | Y 4.34 | K 3.2 | E 5.31 | H 4.07
G16: I 2.72 | H 3.08 | C 3.52 | M 2.56 | N 2.82 | V 2.57 | R 3.64 | S 2.51 | L 2.49 | A 4.75 | P 3.28 | T 3.62 | D 3.77 | E 3.83 | F 3.33 | K 3.07 | Q 3.5 | W 2.66 | Y 2.39
G13: R 3.7 | V 2.62 | D 3.94 | S 3.22 | T 3.19 | P 4.43 | Q 3.32 | E 3.86 | Y 3.11 | F 2.45 | H 3.24 | C 3.87 | N 2.78 | I 2.7 | A 2.92 | W 2.5 | L 2.75
V7: A 4.02 | S 4.76 | N 4.2 | F 3.45 | E 5.27 | Q 3.79 | T 4.18 | H 4.4 | P 5.22 | L 3.44 | D 4.8 | G 4.93 | K 3.56 | C 3.63 | Y 4.14 | W 4.17 | I 3.42
H17: Y 2.66 | L 3.49 | D 2.31 | A 2.97 | P 2.5 | N 3.54 | E 4.36 | S 3.78 | K 4.05 | F 3.01 | R 3.35 | V 3.2 | T 3.91 | Q 3.51 | C 2.06 | I 3.49
I1: P 3.23 | Y 2.62 | T 4.79 | Q 4.43 | S 5.09 | H 3.73 | R 4.81 | G 4.68 | C 4.11 | F 1.59 | M 2.72 | A 4.82 | L 3.44 | D 5.18 | V 4.4
